{"source": "the supplement of paper PMC12042874", "note": "± gives the uncertainty stated by the source."}
{"test": "amyloid nucleation score (Sup35N fusion, yeast selection) (log enrichment); library NNK2; higher = more nucleation; inactive = no reads after selection", "outline": "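Nucleation score is defined as the DiMSum log enrichment of output over input reads, with centring on the mode score of non-aggregating sequences. A minimum of 100 input reads was required for each sequence. Reads came from Illumina sequencing of plasmid inserts from psi-negative yeast expressing Sup35N fused to peptides of 20 random codons, induced with 100 μM copper sulfate for 24 hours and grown 7 days at 30°C on medium lacking adenine and uracil.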"}
{"substance": "VVLGLDNPIHLIFLKDVNYC", "amyloid nucleation score": "-1.5 ± 1.1"}
{"substance": "VVMVVCMV", "amyloid nucleation score": "0.36 ± 0.62"}
{"substance": "VVNVVSGYGAE", "amyloid nucleation score": "0.619 ± 0.19"}
{"substance": "VVPIGETR", "amyloid nucleation score": "1.49 ± 0.47"}
{"substance": "VVRQTVSDCVQASTRSQLLK", "amyloid nucleation score": "0.522 ± 0.35"}
{"substance": "VVRYLYRWTTVVGLHGGSHN", "amyloid nucleation score": "-0.786 ± 0.43"}
{"substance": "VVSILRLDSVGRVVIEAWVR", "amyloid nucleation score": "0.223 ± 0.77"}
{"substance": "VVSINVQVDHVCYAFSQVSQ", "amyloid nucleation score": "8.211 ± 0.062"}
{"substance": "VVSITNINNMSSMRSEPEYK", "amyloid nucleation score": "6.98 ± 0.078"}
{"substance": "VVSKVLNKYF", "amyloid nucleation score": "0.189 ± 0.65"}
{"substance": "VVSRVECALAWVRNDIEALT", "amyloid nucleation score": "0.343 ± 0.8"}
{"substance": "VVSTESVNVI", "amyloid nucleation score": "0.889 ± 0.27"}
{"substance": "VVVSRTITLSTSYEFYIVKY", "amyloid nucleation score": "0.798 ± 0.32"}
{"substance": "VVYWRWTTPDLRVKAHGLFF", "amyloid nucleation score": "0.438 ± 0.5"}
{"substance": "VWAHL", "amyloid nucleation score": "-0.191 ± 0.35"}
{"substance": "VWEGTGPLEICWFCWGEW", "amyloid nucleation score": "2.5 ± 0.17"}
{"substance": "VWFMEVNVKYECTPSYEGRL", "amyloid nucleation score": "3.81 ± 0.073"}
{"substance": "VWGLLTIPCVSQIRCRCGFS", "amyloid nucleation score": "0.749 ± 0.53"}
{"substance": "VWGRMLRVGFGEV", "amyloid nucleation score": "0.066 ± 0.63"}
{"substance": "VWHVDTAVLTRA", "amyloid nucleation score": "1.08 ± 0.41"}
{"substance": "VWIFSSSIKTTLYKHLLSNT", "amyloid nucleation score": "-0.539 ± 0.74"}
{"substance": "VWLNHLTTIYYCNHKLCLLL", "amyloid nucleation score": "2.17 ± 0.22"}
{"substance": "VWLYCSEQDRCVMLASRELL", "amyloid nucleation score": "0.465 ± 0.34"}
{"substance": "VWNYISLNEAM", "amyloid nucleation score": "-0.946 ± 0.55"}
{"substance": "VWPLFAEDGCNANGVVNQVS", "amyloid nucleation score": "0.955 ± 0.22"}
{"substance": "VWPTMCTVFAMF", "amyloid nucleation score": "2.51 ± 0.065"}
{"substance": "VWVKRVDASSCAVS", "amyloid nucleation score": "1.26 ± 0.38"}
{"substance": "VWWSEVTAVSNCQRVSYARP", "amyloid nucleation score": "2.94 ± 0.075"}
{"substance": "VYCIVRMYIALWCYVLDYVE", "amyloid nucleation score": "0.34 ± 0.36"}
{"substance": "VYFLMLDY", "amyloid nucleation score": "-0.526 ± 0.49"}
{"substance": "VYFSQDQFSYYFTRVESVEV", "amyloid nucleation score": "-0.191 ± 0.45"}
{"substance": "VYFTSVMNSCVYVSAVCEMC", "amyloid nucleation score": "6.953 ± 0.046"}
{"substance": "VYHDHLKLWSKGTSRVAWAL", "amyloid nucleation score": "2.34 ± 0.16"}
{"substance": "VYHLLFSGC", "amyloid nucleation score": "0.219 ± 0.33"}
{"substance": "VYIYSGFVVSWLRFFGVMRP", "amyloid nucleation score": "-0.394 ± 1.1"}
{"substance": "VYMFCRGGTHEAYFFHTGLC", "amyloid nucleation score": "-0.256 ± 0.79"}
{"substance": "VYMKKINSFITMMSVHGNCS", "amyloid nucleation score": "5.11 ± 0.068"}
{"substance": "VYMPYHLSYMLEPRQNSVLS", "amyloid nucleation score": "-0.744 ± 1.1"}
{"substance": "VYNFSFSNSNVK", "amyloid nucleation score": "6.669 ± 0.047"}
{"substance": "VYPDSIVGFEADVNGCVVVP", "amyloid nucleation score": "0.713 ± 0.38"}
{"substance": "VYRYIVIYPFVKWHKTDRFC", "amyloid nucleation score": "-0.805 ± 0.33"}
{"substance": "VYSPFLICI", "amyloid nucleation score": "0.174 ± 1"}
{"substance": "VYSRDFRIQ", "amyloid nucleation score": "-1.1 ± 0.54"}
{"substance": "VYTCSIFYLGLVYRHISDSS", "amyloid nucleation score": "inactive"}
{"substance": "VYVSYVAIFLPEPLVCDNVE", "amyloid nucleation score": "7.192 ± 0.04"}
{"substance": "WASIV", "amyloid nucleation score": "0.049 ± 0.8"}
{"substance": "WASWRSYSMWLDLLCFRSRG", "amyloid nucleation score": "0.155 ± 0.33"}
{"substance": "WAWGCWVHSESVAWSCMCKA", "amyloid nucleation score": "0.476 ± 0.28"}
{"substance": "WAYPRNVQ", "amyloid nucleation score": "0.327 ± 0.38"}
{"substance": "WCTLFFQCRRPG", "amyloid nucleation score": "5.554 ± 0.049"}
{"substance": "WCVRELLE", "amyloid nucleation score": "-0.077 ± 0.39"}
{"substance": "WDIYQVGGTMSLDVFVKV", "amyloid nucleation score": "-0.2 ± 0.3"}
{"substance": "WEDAVDSSVRFC", "amyloid nucleation score": "-0.211 ± 0.61"}
{"substance": "WEDKVAGSMGAWDDLG", "amyloid nucleation score": "0.791 ± 0.67"}
{"substance": "WEGNEHWKCTENLVLAKTGH", "amyloid nucleation score": "inactive"}
{"substance": "WFDIKL", "amyloid nucleation score": "-0.367 ± 0.48"}
{"substance": "WFHVAAYAFRGTCYHLGGVL", "amyloid nucleation score": "4.39 ± 0.096"}
{"substance": "WFIASLLYISLWFYICSTMS", "amyloid nucleation score": "0.878 ± 0.24"}
{"substance": "WFKVH", "amyloid nucleation score": "0.26 ± 0.8"}
{"substance": "WFVGCHTVRR", "amyloid nucleation score": "0.84 ± 0.33"}
{"substance": "WGLGCMSQSTLHGSLISSVR", "amyloid nucleation score": "-0.5 ± 0.44"}
{"substance": "WGLHYSRYHLHV", "amyloid nucleation score": "-0.494 ± 0.27"}
{"substance": "WGLSRNSNIGHRVLIVAGNL", "amyloid nucleation score": "-0.683 ± 0.35"}
{"substance": "WGNVLNLYNR", "amyloid nucleation score": "4.53 ± 0.081"}
{"substance": "WGQNNAEAFNYALMWVFRVW", "amyloid nucleation score": "2.49 ± 0.11"}
{"substance": "WGSSFR", "amyloid nucleation score": "0.592 ± 0.24"}
{"substance": "WGTDISYMGRSGCTLSGCIY", "amyloid nucleation score": "-1.13 ± 0.55"}
{"substance": "WHCNFMHWVHKR", "amyloid nucleation score": "6.383 ± 0.06"}
{"substance": "WILGKFTDKFRSSRHRRNRA", "amyloid nucleation score": "0.787 ± 0.25"}
{"substance": "WINPFAQWMNSVQIFK", "amyloid nucleation score": "0.466 ± 0.12"}
{"substance": "WISTTYASLDNPSHKGIVLM", "amyloid nucleation score": "-0.302 ± 0.48"}
{"substance": "WKESGVHRHFHTSIGKDRVL", "amyloid nucleation score": "inactive"}
{"substance": "WKFRNN", "amyloid nucleation score": "inactive"}
{"substance": "WKKSMKIVNKYAVSLPDVGR", "amyloid nucleation score": "0.29 ± 0.51"}
{"substance": "WKMWRVKAVNR", "amyloid nucleation score": "0.935 ± 0.35"}
{"substance": "WLCVRNVLMCQW", "amyloid nucleation score": "7.037 ± 0.042"}
{"substance": "WLFRGSIVKWTPHRPDRYAC", "amyloid nucleation score": "-0.088 ± 0.46"}
{"substance": "WLIKPVAPLSVYWSVWWSVV", "amyloid nucleation score": "0.3 ± 0.55"}
{"substance": "WLLMYPLI", "amyloid nucleation score": "-1.04 ± 0.34"}
{"substance": "WLLNLERDIFLLTLSGRMIK", "amyloid nucleation score": "0.449 ± 0.8"}
{"substance": "WLLNYYRGGVWLGLWTRKE", "amyloid nucleation score": "-1.3 ± 0.48"}
{"substance": "WLRDYRLWATT", "amyloid nucleation score": "-0.223 ± 0.63"}
{"substance": "WLVMEATLAFIRYTRGSFSL", "amyloid nucleation score": "-0.432 ± 1.1"}
{"substance": "WLYALWCDWSA", "amyloid nucleation score": "3.97 ± 0.061"}
{"substance": "WMNFCPDVGHANGGVPNRLG", "amyloid nucleation score": "0.583 ± 0.37"}
{"substance": "WMRFYSYNGIY", "amyloid nucleation score": "-1.26 ± 1.1"}
